Results on 40 sequences are retold here after the nanobody polyreactivity screen of Harvey et al. (2022).

The nature of this series: yeast display, Sf9 membrane polyspecificity reagent, FACS + sequencing; frameworks hold sequencing errors. In a few lines: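 Sorting gates, low and high (top ~1%), were placed on anti-HA fluorescence to track expression and on streptavidin fluorescence to track reagent binding. A clone's polyreactivity label is taken from the gate it came out of. The reagent was 10% biotinylated, detergent-solubilized Sf9 membrane, applied for 1 hour at 4 °C to galactose-induced yeast display cells.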
Take “QVQLVESGGGLVQAGGSLRLSCAASGLIFVGYAMGWYRQAPGKERELVAAITSGGSTYYADSVKGRFTISRDNAKNTVYLQMNSLKPEDTAVYYCAAQQGISNGTGVSATNPMDYWGHGTQVTVSS”: the “polyreactivity (PSR sort gate)” value was “low polyreactivity”. As for “QVQLVESGGGLVQAGGSLRLSCAASGLIFVNAMGWYRQAPGKEREFVAAITYSTGSTYYADSVKGRFTISRDNAKNTVYLQMNSLKPEDTAVYYCAKDRSGHGTERDYWGQGTQVTVSS”, the entry is “low polyreactivity”; as for “QVQLVESGGGLVQAGGSLRLSCAASGLIFVQYVMGWYRQAPGKERELVAAITDDGNTYYADSVKGRFTISRDNAKNTVYLQMKSLKPEDTAVYYCNAVLRSYDFWPGYGYWGQGTQVTVSS”, “low polyreactivity”; as for “QVQLVESGGGLVQAGGSLRLSCAASGLIFVWYAMGWYRQAPGKERELVAAITRSGGSTYYADSVKGRFTISRDNAKNTVYLQMNSLKPEDTAVYYCAARWKFPSSFYYWGQGTQVTVSS”, “high polyreactivity”. Regarding “QVQLVESGGGLVQAGGSLRLSCAASGLIFVYNAMGWYRQAPGKEREFVAGITSGGSTNYADSVKGRFTISRDNAKNPVYLQMNSLKPEDTAVYDCAAGYYDLYLWWGYDYWGQGTQLTVSS”, the “polyreactivity (PSR sort gate)” value is on record as “high polyreactivity”. As for “QVQLVESGGGLVQAGGSLRLSCAASGLIFWLNAMGWYRQAPGKDCELVAAISRGGSTNYADSVKGRFTISRDNAKNTVYFQMNSLKPEDSAVYYCAAGSRRAAWYDYSYPYGYWGQGTQVTVSS”, the entry is “high polyreactivity”. Under “QVQLVESGGGLVQAGGSLRLSCAASGLIFWYYAMGRYRQAPGKERELVASISSGGDTTYADSVKGRFTISRDNAKNTVYLQMNSLKPEDTAVYYGAAERYVRVWVAGILHYDYWGQGTQVTVSS” stands “low polyreactivity”. As for “QVQLVESGGGLVQAGGSLRLSCAASGLIFYANVMGWYRQAPGKERELVAAISRSGTSTYYADSVKGRFTISRDNAKNTVYFQMNSLKPEDTAVYYCAADFVKRQANRQFDYWGQGTQVTVSS”, the entry is “high polyreactivity”. In the case of “QVQLVESGGGLVQAGGSLRLSCAASGLIFYDNLGWYRQAPGKDRELVAAISSSGGSTSYADSVKGRFTISRDNAKNTVYLPMNSLKPEDTAVYYCAAKWSHVRDGPKYDYWGQGTQVTVSS”, the “polyreactivity (PSR sort gate)” value is reported as “low polyreactivity”. Regarding “QVQLVESGGGLVQAGGSLRLSCAASGLIFYDNMGWYRQAPGKERELVAAISSSGGSTNYADSVKGRFTISRDNAKNTVYLQMNSLKPEDTAVYYCAADSYPAYLGFVGFDYWGQGTQVTVSS”, the “polyreactivity (PSR sort gate)” value is listed as “low polyreactivity”. Under “QVQLVESGGGLVQAGGSLRLSCAASGLIFYDNMGWYRQPPGKERELVAAITVSGGSTYYADSVKGRFTISRDNAKNTVYLQMKSLKPEDTAVYYCARELLSPTYQRWYYYWGQGTQVTVSS” stands “low polyreactivity”; under “QVQLVESGGGLVQAGGSLRLSCAASGLIFYFYAMGWYRQAPGKERELVAGITNVGSTNYADSVKGRFTISRDNAKNTVYLQMNSLKPEDTAVYYCAAQYYTVRSTYDYWGQGTQVTVSS”, “high polyreactivity”. Under “QVQLVESGGGLVQAGGSLRLSCAASGLIFYGNAMGWYRQAPGKERELVAAISWSGGNTSYADSVKGRFTISRDNAKNTVYLQMNSLKPEDTAVYYCAVDNTGRSWPYDYWGQGTQVTVSS” stands “low polyreactivity”.

As to “QVQLVESGGGLVQAGGSLRLSCAASGLIFYKNAMGSYRQAPGKEREFVAAISRSGASTYYSDSVMGRFTISRDYAKNTVYLQMKSLKPEVTEVYLCAARAGANYRMDYWGQGTQVTVSS”, the “polyreactivity (PSR sort gate)” value is given as “high polyreactivity”. In the case of “QVQLVESGGGLVQAGGSLRLSCAASGLIFYRNAMGWYRQAPGKERELVAAIRFSTGSTYYADSVKGRFTISRDNAKNTVYLEMNSLKPEDTAVYYCAAALPGYGDYYYWGQGTQVTVSS”, the “polyreactivity (PSR sort gate)” value was “high polyreactivity”. Under “QVQLVESGGGLVQAGGSLRLSCAASGLIFYRYAMGWYRQAPGKERELVAAISRRGGSTYYADSVKGRFTISRDNAKNTVYLQMNRLKAEETAVYYCAARLPGYYGIGDYWGQGTQVTVSS” stands “high polyreactivity”; under “QVQLVESGGGLVQAGGSLRLSCAASGLIFYRYAMGWYRQAPGKERELVADISWSGGTTYYADSVKGRFTISRDNAKNTVYLQMNSLKPEDTAVYYCAARSVPSPERGFYYWGQGTQVTVSS”, “high polyreactivity”.

Regarding “QVQLVESGGGLVQAGGSLRLSCAASGLIFYRYTMGWNRQAPGKERELVAGITSGGRTYYADSVKGRFTISRDNAKNTFYLQMNSLKPEDTAVYYCAARYFPARTRYYYWGQGTQVTVSS”, the “polyreactivity (PSR sort gate)” value is listed as “high polyreactivity”. As for “QVQLVESGGGLVQAGGSLRLSCAASGLIFYSYAMGWYRQAPGKERELVAAINGGGGSTYYADSVKGRFTISRDNAKNTVYFQMNSLKPEDTAVSYCAAPYYRLTGWSRYDYWGQGTQVTVSS”, the entry is “high polyreactivity”; as for “QVQLVESGGGLVQAGGSLRLSCAASGLIFYWNTMGWYRQAPGKERELVAYISGGGGRTYYADSVKGRFTISRDNAKNTVYLQMNSLKPEDTAVYYCAAKLYGYRSGYYYWGQGTQVTVSS”, “high polyreactivity”; as for “QVQLVESGGGLVQAGGSLRLSCAASGLIFYYYAMGWYRQAPGKERELVAAITRGGRTYYADSVKGRFTISRDNAKNTVYLQMNSLKPEDTAVYYCAAGWYQGFDYWGQGTQVTVSS”, “high polyreactivity”. “QVQLVESGGGLVQAGGSLRLSCAASGLIFYYYAMGWYRQAPGQERELVAAITSDDRTYYADSVKGRFTISRDNAKNTVYLQMNSLKPEDTAVYYCAARYHGYLPQYRKYGYGYWGQGTQVTVSS”: the “polyreactivity (PSR sort gate)” value was “high polyreactivity”. Take “QVQLVESGGGLVQAGGSLRLSCAASGLIFYYYTMGWYRQAPGKERELVARITSSGGRTYYADSVKGRFTISRDNAKNTVYLQMNSLKPEDTAVYYCNARVPRYNGGSTMEYWGQGTQVTVSS”: the “polyreactivity (PSR sort gate)” value is recorded as “high polyreactivity”.

For the sequence “QVQLVESGGGLVQAGGSLRLSCAASGLIIASYAMGWYRQAPGKERELVAAINTGGSTYYADSVKGRFTISRDNAKNTVYLQMNSLKPEDTAVYYCAARYTGLSYSRYGYWGQGTQVTVSS”, the “polyreactivity (PSR sort gate)” value is given as “high polyreactivity”.

For the sequence “QVQLVESGGGLVQAGGSLRLSCAASGLIIPAYAMGWYRQAPGKEREMVATITWRGGSTYYADSVKGRFTISRDNAKNTVYLQMNSLKPEDTAVDYCATRPRYYYFRYDYWGQGSQVTVSS”, the “polyreactivity (PSR sort gate)” value is on record as “high polyreactivity”. In the case of “QVQLVESGGGLVQAGGSLRLSCAASGLIIWLYTLGWYRQAPGKESELVAAIDWSGGSTYYADSVKGRFTISRDNAKNTVYLQMNSLKPEDTAVYYCAADPEPSYRFDYWGQGTQVTVSS”, the “polyreactivity (PSR sort gate)” value is recorded as “low polyreactivity”. Under “QVQLVESGGGLVQAGGSLRLSCAASGLIIYYNAMGWYRQAPGKERELVAAITSGGSTYYADSVKGRFTISRDNAKNTVYLQMNSLKPEDTAVYYCAAVPASYRYPMYYWGQGTQVTVSS” stands “low polyreactivity”; under “QVQLVESGGGLVQAGGSLRLSCAASGLILDGYAMGWYRQAPGKERELVAAITRSGGRTYYADSVKGRFTISRDNAKNTVYLQMNSLKPEDTAVYYCAALGWSGRYRYDYWGQGTQVTVSS”, “high polyreactivity”.

Turning to “QVQLVESGGGLVQAGGSLRLSCAASGLILDYNDMGWYRQAPGKERELVASITGGGSTYYADSVKGRFTISRDNAKNTVYLQMNSLKPEDTAVYYCNADPVGVYGFDLDYWGQGTQVTVSS”, the “polyreactivity (PSR sort gate)” value was “low polyreactivity”.

“QVQLVESGGGLVQAGGSLRLSCAASGLILGSYAMGWYRQAPGKERELVAGISWSGGDTYYADSVKGRFTISRDNAKNTVYLQMNSLKPEDTAVYYCNTGGTFLDWVRRPFGFGYWGQGTQVTVSS”: the “polyreactivity (PSR sort gate)” value is “low polyreactivity”. As for “QVQLVESGGGLVQAGGSLRLSCAASGLILGVYTMGWYRQAPGKEREFVASINFGGGSTYYADSVKGRFTISRDNAKNTVYLQMNSLKPEDTAVYYCNARSLGGGTRLYSYDYWGQGTQVTVSS”, the entry is “low polyreactivity”; as for “QVQLVESGGGLVQAGGSLRLSCAASGLILGYYAMGWYRQAPGKERELVATIRRGASTFYADSVKGRFTISRDNAKNTVYLQLNSLKPEDTAVYYCAADTERSLAGGLYYWGQGTQVNVSS”, “low polyreactivity”; as for “QVQLVESGGGLVQAGGSLRLSCAASGLILHINTMGWYRQAPGKERELVAAISWSGDSTYYSDSVKGRFTISRDNAKNTVYLQKNSLKPDDSAVYYGAADYWYFYTPYSYEYGYWGQGTQVTVSS”, “high polyreactivity”. As to “QVQLVESGGGLVQAGGSLRLSCAASGLILHKYAMGGSRQAPGKERELVASINSGANTNYADSVKGRFTISRDNAKNTVYLQMNSLKPEDTAVYYCNADPGFRSGDYGYSSFDYWGQGTQVTVSS”, the “polyreactivity (PSR sort gate)” value is listed as “low polyreactivity”. Under “QVQLVESGGGLVQAGGSLRLSCAASGLILKYYAMGWYRQAPGKEREFVAAITRRGGITYYADSVKGRFTISRDNAKNTVYLQMNSLKPEDTAVYYCAADPKLGSLAYWRYSYPLYDYWGQGTQVTVSS” stands “low polyreactivity”.

With “QVQLVESGGGLVQAGGSLRLSCAASGLILSSNTMGWYRQAPGKERELVARIRRNDGNTYYADSVKGRFTISRDNAKNTVYLQMNSLKPEDTAVYYCAQYLAIGYYWGQGTQVTVSS”, the “polyreactivity (PSR sort gate)” value was “low polyreactivity”. As for “QVQLVESGGGLVQAGGSLRLSCAASGLILYTYAMGCYRQAPGKERELVAAINSGGRTYYADSVKGRFTISRDNAKNTVYLQMNSLKPEDTAVYYCAADYGSRVRGFNYWGQGTQVTVSS”, the entry is “low polyreactivity”; as for “QVQLVESGGGLVQAGGSLRLSCAASGLILYYYTIGWYRQAPGKERELVAAINSGGNTYYADSVKGRFTISRDNAKNTVYLQMNSLKPEDTAVYYCNAYRVRYKRSYDYWGQGTQVTVSS”, “high polyreactivity”; as for “QVQLVESGGGLVQAGGSLRLSCAASGLISESYAMGWYRPAPGKERELVAAISSGGSTYYADSVKGRFTISRDNAKNTVYLQMNSLKPEDTAVYYCNASGYKYTYGHAYYYAVDYWGQGTQVTVSS”, “low polyreactivity”. As for “QVQLVESGGGLVQAGGSLRLSCAASGLISVIYAMGWYRQAPGKERELVAAISWRGANTYYADSVKGRFTISRDNAKNTVYLQMNSLKPEDTAVYYCNAVLYVWFAPYRYDYWGQGTQVTVSS”, the entry is “high polyreactivity”.
